One block for each substance: values may come before it.
Molecular target: GFP-CRN7 WT (UniProt Q55E54)
Assay: pull-down, western blot band intensity
Details: read off a plot

Sequence of UniProt Q55E54 (Q55E54 whole entry): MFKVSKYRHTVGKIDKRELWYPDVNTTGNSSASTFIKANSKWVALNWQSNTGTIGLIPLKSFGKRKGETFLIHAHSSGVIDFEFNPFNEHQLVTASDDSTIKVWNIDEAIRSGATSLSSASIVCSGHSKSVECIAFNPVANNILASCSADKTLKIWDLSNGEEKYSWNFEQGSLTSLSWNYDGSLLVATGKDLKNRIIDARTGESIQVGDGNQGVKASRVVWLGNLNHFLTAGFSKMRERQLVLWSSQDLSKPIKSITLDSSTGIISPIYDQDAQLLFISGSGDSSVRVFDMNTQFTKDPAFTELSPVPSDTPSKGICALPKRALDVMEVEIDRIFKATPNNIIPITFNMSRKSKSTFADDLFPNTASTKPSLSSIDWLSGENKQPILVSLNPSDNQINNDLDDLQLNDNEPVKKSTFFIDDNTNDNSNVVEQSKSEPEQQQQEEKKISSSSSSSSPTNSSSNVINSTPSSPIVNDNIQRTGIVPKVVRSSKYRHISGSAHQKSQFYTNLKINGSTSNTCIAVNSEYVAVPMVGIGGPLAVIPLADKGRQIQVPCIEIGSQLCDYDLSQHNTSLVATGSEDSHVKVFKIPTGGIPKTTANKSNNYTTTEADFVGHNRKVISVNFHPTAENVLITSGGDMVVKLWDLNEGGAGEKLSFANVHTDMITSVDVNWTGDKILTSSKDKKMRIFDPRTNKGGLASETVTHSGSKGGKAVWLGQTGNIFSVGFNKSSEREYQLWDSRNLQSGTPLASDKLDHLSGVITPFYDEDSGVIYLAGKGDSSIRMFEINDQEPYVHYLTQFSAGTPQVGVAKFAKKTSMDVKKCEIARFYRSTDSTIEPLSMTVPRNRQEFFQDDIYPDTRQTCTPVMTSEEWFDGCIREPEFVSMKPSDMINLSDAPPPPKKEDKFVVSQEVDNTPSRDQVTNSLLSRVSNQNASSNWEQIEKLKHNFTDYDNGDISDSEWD

response (arbitrary units) (RacC Mut2 loaded with GDP, parent: est. 61): 57
response (arbitrary units) (RacC Mut2 loaded with GTPγS, parent: est. 39): 43
Substance: GST-RacC (from UniProt P34149) D to A (Mut2)

response (arbitrary units) (RacC Mut3 loaded with GDP, parent: est. 61): 64
response (arbitrary units) (RacC Mut3 loaded with GTPγS, parent: est. 39): 36
Substance: GST-RacC (from UniProt P34149) Y40K

response (arbitrary units) (RacC Mut4 loaded with GDP, parent: est. 61): 54
response (arbitrary units) (RacC Mut4 loaded with GTPγS, parent: est. 39): 46
Substance: GST-RacC (from UniProt P34149) EE to KK (Mut4)

response (arbitrary units) (RacC Mut5 loaded with GDP, parent: est. 61): 51
response (arbitrary units) (RacC Mut5 loaded with GTPγS, parent: est. 39): 49
Substance: GST-RacC (from UniProt P34149) DD to QQ (Mut5)

response (arbitrary units) (RacC Mut1 loaded with GDP, parent: est. 61): 52
response (arbitrary units) (RacC Mut1 loaded with GTPγS, parent: est. 39): 48
Substance: GST-RacC (from UniProt P34149) ED to KK (Mut1)

Source: article PMC4585930
